# Experimental data reported in patent publication US20230189818A1, “RNA-BASED CONTROL OF BOTRYTIS” (priority 2021, published 2023).
# Columns and labels:
# B. cinerea = test: Open-air field trial on snap bean (Example 4.3, AUDPC of % disease severity); type: in vivo, Botrytis cinerea; conditions: Switch 525 g ai/ha, GS349 20 and 40, GS2280 10 and 40, GS2303 10, 20 and 40, GS2297 20 g ai/ha, FIG. 9
# Method: RNAi compositions, each containing a dsRNA comprising a trigger sequence (GS349, GS2280, GS2303, or GS2297) described herein were evaluated for ability to control botrytis on snap bean in open-air filed trials. All test samples were formulated with RO water, propylene glycol, a linear alcohol ethoxylate, a lignosulfanate, sodium citrate dihydate, a polyacrylic acid polymer, two biocide compositions, anhydrous citric acid, and an antifoam, all of which are readily commercially available. Formulation samples were tank mixed with a standard adjuvant, the non-ionic surfactant, Activator 90 0.125%v/v. Compositions were tested at concentrations of 10, g ai/ha, 20 g ai/ha, and 40 g ai/ha. Positive controls were a chemical standard, Switch 525 g ai/ha and a biological standard, Double Nickel LC 9.4 I/ha, both of which were also tank mixed with Activator 90 0.125% v/v. As above, an untreated check was used as a negative control.
# Compositions were applied to snap bean plants using a small plot sprayer delivering 50 gallons of water per acre. A total of three applications were used for each sample and positive control. Disease state was evaluated beginning 8 days after the first application and ending 37 days after the third and final application. Percent Disease Severity was assessed and AUDPC was calculated in the same manner as noted in Example 4.1.
# [1] = tested on: Botrytis cinerea isolate (B05.10); test: Detached leaf assay (tomato leaflets, lesion size); type: in vivo; conditions: five days post inoculation, vs untreated inoculated control
# Summary of the method: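 Tomato (Brandywine) detached lateral leaflets were sprayed with treatment in 0.03% Silwet L-77 24 h before inoculation. Two 10 μL drops of 1×10^5 conidia/mL in 7% grape juice were applied per leaflet, which was then incubated at 23 °C, ~75% RH, 12/12 light. Lesion diameter was measured at 5 DPI against the untreated inoculated control, ten replicates.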
# Botrytis = test: Open-air field trial on strawberry (Example 4.1, AUDPC of % disease severity); type: in vivo, Botrytis cinerea; conditions: FIG. 6
# Method: RNAi compositions, each containing a dsRNA comprising a trigger sequence (GS349 or GS730) described herein were evaluated for ability to control botrytis on strawberry in open-air field trials. Non-formulated (dissolved in water) GS349 and GS730 were each tank mixed with water and the standard adjuvant Silwet L-77 0.1% v/v. GS349 was tested at concentrations of 25 grams of active ingredient per hectare (g ai/ha) and 50 g ai/ha and GS730 was tested at a concentration of 100 g ai/ha. Serenade ASO 85 g ai/ha, a standard biological fungicide, was used as a positive control. A second positive control group was treated with alternating applications of the chemical standards Teldor Plus 750 g ai/ha, Signum 600 g ai/ha, and Switch 500 g ai/ha. The trial also included an untreated group as a negative control.
# Test compositions and positive controls were sprayed onto strawberry plants in 12 applications. Plants were observed beginning 14 days after the first application and disease progress was assessed by determining the percentage of surface area of fruit that was affected by the disease (% Disease Severity). Disease severity was plotted over the length of the trial observations and area under disease progress curve (AUDPC) was calculated in order to measure the cumulative effect of the various treatments across multiple assessments. Means were separated according to Fisher's LSD, alpha (p)≤0.05.
Molecule,Disease state compared to treatment with the chemical standard (AUDPC) (B. cinerea),Average % Reduction in Lesion Size ([1]; 30 ppm),Average % Reduction in Lesion Size ([1]; 50 ppm),"Disease control compared with the biological standard (AUDPC) (Botrytis; 50 g/h ai, Serenade ASO 85 g ai/ha)","Disease control compared with the chemical standard (AUDPC) (Botrytis; 50 g/h ai, alternating Teldor Plus, Signum, Switch)","Disease control compared with the biological standard, Serenade (AUDPC) (Botrytis; GS349 25 g ai/ha, GS730 100 g ai/ha, Serenade ASO 85 g ai/ha)","Control of Botrytis vs. the untreated control (AUDPC) (Botrytis; non-formulated, Silwet L-77 0.1% v/v, 12 applications, GS349 25 and 50 g ai/ha, GS730 100 g ai/ha)"
"GS2297: dsRNA trigger targeting B. cinerea Bcrpb5 (XM_024693733.1); trigger SEQ ID NO 23, RNA 35, reverse complement 47 (nucleic acid, listed as Botrytis cinerea) sense: UGCACCAUCAGGUCCCGCUCAAAAGAUUAUUCCCGCUGUCGCAUCCGAGACAAGAAUCGAGACCUUCGUCGAGCAAGAUUUACUUGUCAAUAUUACACAUCAUGAAUUGGUUCCCAAGCAUGUUUUGUUAAGUAGAGAAGAGAGGGCCAAGUUGUUGUCAAGAUAUAGAUUGAAGGAUACUCAACUCCCACGUAUUCAGGCUGCGGAUCCAGUUGCAAAAUAUUUGGGAUUGAGAAGAGGGCAGGUCGUUAAGAUUAUCAGAAAGUCGGAAACUGCUGGUCGUUAUGCCAGUUACAGAUUGUGCGUAUAAUGGAGCUGGAGGGUAGAUGAUUUGGUGUUAAUAACUAGGGAGUUUCUUGGGAAAAAUUUGCAUAUUUGGGGAAGGCGUAAUAGGCUGGAAGAAAGACUGAGGAUGAGAUUGUCUAUUUUGGCUUUCCAGGAAGCAAUACUUUGAGACAUGAAAUUUGAUAUUAAAUUUCUUGUUCUGUAUAUUUCUGAUAGUUUCAGAGCUUUUCAAUAAGAUCUAUUCUACAGUUUUAAGAAUCCAGACUCACCCUUUGAGAAGCUCAUACAAAGUUCCUUCCUA antisense: UAGGAAGGAACUUUGUAUGAGCUUCUCAAAGGGUGAGUCUGGAUUCUUAAAACUGUAGAAUAGAUCUUAUUGAAAAGCUCUGAAACUAUCAGAAAUAUACAGAACAAGAAAUUUAAUAUCAAAUUUCAUGUCUCAAAGUAUUGCUUCCUGGAAAGCCAAAAUAGACAAUCUCAUCCUCAGUCUUUCUUCCAGCCUAUUACGCCUUCCCCAAAUAUGCAAAUUUUUCCCAAGAAACUCCCUAGUUAUUAACACCAAAUCAUCUACCCUCCAGCUCCAUUAUACGCACAAUCUGUAACUGGCAUAACGACCAGCAGUUUCCGACUUUCUGAUAAUCUUAACGACCUGCCCUCUUCUCAAUCCCAAAUAUUUUGCAACUGGAUCCGCAGCCUGAAUACGUGGGAGUUGAGUAUCCUUCAAUCUAUAUCUUGACAACAACUUGGCCCUCUCUUCUCUACUUAACAAAACAUGCUUGGGAACCAAUUCAUGAUGUGUAAUAUUGACAAGUAAAUCUUGCUCGACGAAGGUCUCGAUUCUUGUCUCGGAUGCGACAGCGGGAAUAAUCUUUUGAGCGGGACCUGAUGGUGCA",no significant difference,27.63%,24.35%,–,–,–,–
"GS349: dsRNA trigger targeting B. cinerea CDC42 (XM_001545642.2); trigger SEQ ID NO 14, RNA 26, reverse complement 38 (nucleic acid, listed as Botrytis cinerea) sense: GUUGUCUUGUCUCGCUCAAGCUUGUCCUGUCUGGUCACUUUUCUUUCUGCCUGAUAAUCCAGACCUCGAAAAUAACCAAAAGAUUGGAAAUCGUUUGCUCAUCUUGCAUGCAUUAUUACUUUCCUGGAUCAAUCUCAUUCAACUCGUUCUCGUGCAUUUCAUUCAACCUCAACCCCUACUUUCAGUCAAUUCAAUUUAAUUCAAUCAUUCAAAUCUUUCAUUUCGCACACUUCACAUUCAACCAUCCUCUCUCAAUCAAAUAUCACCACCUCUCUUAUCGAACGUCAUUUUGCAUACAAUCAAUUCCUACAGACCGAGCGCAACUCGAUACAACCAUCGAAUAACUUCUCACACUUGCUUGUUGAAUUGAUUACUGAAGAAAGUGGAUUUCAAAGACCGAUUUUCCCCCUAGAUAUUCAAGAACGGCUUAUUCUUGUCUCGAGACAAAAC antisense: GUUUUGUCUCGAGACAAGAAUAAGCCGUUCUUGAAUAUCUAGGGGGAAAAUCGGUCUUUGAAAUCCACUUUCUUCAGUAAUCAAUUCAACAAGCAAGUGUGAGAAGUUAUUCGAUGGUUGUAUCGAGUUGCGCUCGGUCUGUAGGAAUUGAUUGUAUGCAAAAUGACGUUCGAUAAGAGAGGUGGUGAUAUUUGAUUGAGAGAGGAUGGUUGAAUGUGAAGUGUGCGAAAUGAAAGAUUUGAAUGAUUGAAUUAAAUUGAAUUGACUGAAAGUAGGGGUUGAGGUUGAAUGAAAUGCACGAGAACGAGUUGAAUGAGAUUGAUCCAGGAAAGUAAUAAUGCAUGCAAGAUGAGCAAACGAUUUCCAAUCUUUUGGUUAUUUUCGAGGUCUGGAUUAUCAGGCAGAAAGAAAAGUGACCAGACAGGACAAGCUUGAGCGAGACAAGACAAC",no significant difference,32.99%,31.80%,significantly improved control,not significantly different,not significantly different,significant control
